Here are results for 1 molecule from patent US20040213795A1.

This experiment concerns the target Murine PD-1 fusion protein (mouse) (UniProt Q02242). Briefly: SPR (BIAcore 3000), murine PD-1 fusion immobilized on CM5 chip, antibody 25 nM to 500 nM in flow. (In general: Surface plasmon resonance follows binding to a sensor surface in real time, without labels.)

Murine PD-1 fusion protein (mouse), sequence (Q02242 25-167): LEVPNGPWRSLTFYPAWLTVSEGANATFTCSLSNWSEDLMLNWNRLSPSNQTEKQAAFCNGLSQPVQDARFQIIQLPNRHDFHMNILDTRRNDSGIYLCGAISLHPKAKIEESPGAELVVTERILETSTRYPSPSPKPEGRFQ

B1: Anti-mouse PD1 antibody J43 (antibody, from another filing, V domains shown)
VH: EVRLLESGGGLVKPEGSLKLSCVASGFTFSDYFMSWVRQAPGKGLEWVAHIYTKSYNYATYYSGSVKGRFTISRDDSRSMVYLQMNNLRTEDTATYYCTRDGSGYPSLDFWGQGTQVTVSS
VL: YELTQPPSASVNVGETVKITCSGDQLPKYFADWFHQRSDQTILQVIYDDNKRPSGIPERISGSSSGTTATLTIRDVRAEDEGDYYCFSGYVDSDSKLYVFGSGTQLTVLG
A word on the Kd: it is the concentration at which binding is half-saturated. B1 returned a Ka of 2.6e+06 M⁻¹ and a Kd of 380 nM.
